Experimental data: patent US20180016337A1 (HELIX BIOPHARMA, published 2018)

Target: T1, CEACAM6 antigen (carcinoembryonic antigen related cell adhesion molecule 6) (human, UniProt P40199 35-320)
T1 construct: also called CD66c
T1 sequence: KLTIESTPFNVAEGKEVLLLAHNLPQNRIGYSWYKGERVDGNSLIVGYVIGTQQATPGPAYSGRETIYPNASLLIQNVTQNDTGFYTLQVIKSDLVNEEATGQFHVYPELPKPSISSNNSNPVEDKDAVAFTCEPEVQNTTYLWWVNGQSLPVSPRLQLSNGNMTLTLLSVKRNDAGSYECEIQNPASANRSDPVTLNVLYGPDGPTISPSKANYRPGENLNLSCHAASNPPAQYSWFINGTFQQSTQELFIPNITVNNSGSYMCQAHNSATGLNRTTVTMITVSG
Assay: SPR, format not stated

Kd: 5 nM
B1: 2A3 camelid single domain antibody (anti-CEACAM6) (VHH)
VHH: QVKLEESGGGLVQAGGSLRLSCRTSGRTNSVYTMGWFRQAPGKEREFVAQIMWGAGTNTHYADSVKGRFTISRDSAESTVYLQMNSLKPEDTAVYYCAANRGIPIAGRQYDYWGQGTQVTVSS
notes: Llama sdAb isolated from a whole cancer cell immunized library; also called 2A3 antibody; 2A3 anti-CEACAM6 antibody
